{"source": "patent US20240059770A1", "binders": {"B1": {"name": "Anti-Human Oxyntomodulin N-Terminal Antibody (antibody, V domains shown)", "VH": "QIQLVQSGPELKKPGETVKISCKASGYTFTDYAFSWVKQAPGKGLKWMGWITTNTGEATYADDFKGRFAFSLETSASTAYLQISNLKNEDTATYFCARETEYGDSSWFGHWGQGTLVTVSA", "VL": "DIVLTQSPASLAVSLGQRATISCRASESVDGWGNSFMHWYQQKPGQPPKLLIYLATYRVAGIPARFSGSGSRTDFTLTINPVEADDVATYYCMQSSEDPYTFGGGTKLEIKR"}}, "molecular_target": "human glucose-dependent insulinotrophic polypeptide (GIP) (human)", "sequence (peptide, as listed by the source)": "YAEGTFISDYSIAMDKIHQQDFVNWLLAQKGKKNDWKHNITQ", "assay": "sandwich immunoassay (MSD ECL): C-Terminal Antibody as capture, ruthenium-labelled N-Terminal Antibody as detection", "data": [{"binder": "B1", "values": [{"measurement": "percent cross-reactivity (ECL against human oxyntomodulin (53-89), blank subtracted)", "result": 0.12, "unit": "%"}]}]}
